Tests used:
[1] = substrate: O=C(O)CC[C@H](NC(=O)Cc1c[nH]c2ccccc12)C(=O)O; experiment: HPLC of oxidised product, Michaelis-Menten; format: biochemical, Arabidopsis thaliana; details: 0.5 mM 2-oxoglutarate, 2 μM Fe(II), 5 mM ascorbate, 50 mM potassium phosphate pH 7.2, 30 °C
[2] = substrate: O=C(O)C[C@H](NC(=O)Cc1c[nH]c2ccccc12)C(=O)O; experiment: HPLC of oxidised product, Michaelis-Menten; format: biochemical, Arabidopsis thaliana; details: 0.5 mM 2-oxoglutarate, 2 μM Fe(II), 5 mM ascorbate, 50 mM potassium phosphate pH 7.2, 30 °C

B1: AtDAO1 (Arabidopsis thaliana) (protein)
chain: MGELNGVIIPTIDLEEVSDKILNQKIREASERWGCFRVINHGVSLSLMAEMKKTVIDLFQRPYEVKVRNTDVLLGSGYRAPNEINPYYEALGLYDMASPHAVNTFCDQLEASADQREIMVKYAKAINGLATDLARKLAESYGLVETDFFKEWPSQFRINKYHFKPETVGKLGVQLHTDSGFLTILQDDENVGGLEAMDNSSGTFFPIDPLPNTLAINLGDMATIWSNGRLCNVKHRVQCKEATMRYSIASFLLGPMDTDLEPPSEFVDAEHPRLYKPISHEGVRNIRMTKKLHDGEALKLITHAGLDK
notes: full-length ORF in pCold I, N-terminal His tag kept, E. coli BL21, TALON purified
- Km [1]: 9.4 µM
- Km [2]: 13.5 µM
